Laboratory results reported in the DeepSol protein solubility set.

Test: soluble on expression in E. coli; label from the status in PepcDB or PDB records

Sequence | soluble on expression in E. coli
MSLDLRARVREELERLKREGLYISPKVLEAPQEPVTRVEGREVVNLASNNYLGFANHPYLKEKARQYLEKWGAGSGAVRTIAGTFTYHVELEEALARFKGTESALVLQSGFTANQGVLGALLKEGDVVFSDELNHASIIDGLRLTKATRLVFRHADVAHLEELLKAHDTDGLKLIVTDGVFSMDGDIAPLDKIVPLAKKYKAVVYVDDAHGSGVLGEKGKGTVHHFGFHQDPDVVQVATLSKAWAGIGGYAAGARELKDLLINKARPFLFSTSHPPAVVGALLGALELIEKEPERVERLWENTRYFKRELARLGYDTLGSQTPITPVLFGEAPLAFEASRLLLEEGVFAVGIGFPTVPRGKARIRNIVTAAHTKEMLDKALEAYEKVGKRLGIIR | soluble
MSLDNLALRMRPKTIDQVIGQEHLVGPGKIIRRMVEANRLSSMILYGPPGIGKTSIASAIAGTTKYAFRTFNATVDSKKRLQEISEEAKFSGGLVLLLDEIHRLDKTKQDFLLPLLESGLVIMIGATTENPFFSVTPAIRSRVQIFELEPLSNQDVKEALQIALSNPERGFDFPIELDEDALDFIATSTNGDLRSAFNSLDLAVLSTPENDEGIRHITLDIMENSLQRSYITMDKDGDGHYDVLSALQKSIRGSDVDASLHYTARLIEAGDLPSLARRLTVIAYEDIGLANPEAQIHTVTALDAAQKIGFPEARILIANVVIDLALSPKSNSAYVAMDKALADLKTSGHLPIPRHLRDGHYSGSKELGNAQDYLYPHNYPGNWVKQDYLPEKIRNHHYFQAEDTGKYERALAQRKEAIDRLREGHHHHHH | soluble
MSLDQPLTFYGLKSMSGAFASYGKYADMGSRLAIAEHPQLLGHPLKYKVIDTEGNAGKAVRKVQEAIGQDGARFFQGCTLSSSALAVSKEIHKAGGVFMTPVGADEITGKDCNASTFRWSVPTYGAIRETLVPMSRQLPQAKRWYTITPQYVFGDALLDNARKVFAELGVEHIGNSYHSLQEQEFSGYLTNAIAAKPDVLVLLNFGSQASNALRQAVNFGIKDRMKVLMVWSAGLDQFQELGSDVLEGVYLGAQYWHQVDTPLNKLLVAATRKAYGINPNYPLAADYIGTKVMLEAIVKAGSLDGAAVSAALQGMRFQGPTGEELIRPGDHQVLKDYYLLRGKPQGQMRDEGHHHHHH | not soluble
MSLDSRTELKEIAGVAKRLTLLYVEDDIPTRRFLKRRLEEIFGVVAEAANGEEGLKRFLQGGIDLVISDNIMPFMDGIEMIREIRRVDTRLPIILTTAFIDTDYLMEAINLGVTQFVAKPISMDLLHNAIQMAIQRVVLDNLTRKAKEQEIELLRFQDRYHSLQQESARRKERNLIKNDHYLQTIQGKEGEEWVLDALHRSLEILSGDSYSVRGLDEGRALLFIVDGMGKGLSASVTTTLSIAFLNYLIDERIAQGARVELGSLVGDYLRFIQKELLEEEIISAGFYDFDFKRERLSYITFGMPSMLWVNSQGECERIKSSSPPLMKYSLPPLPQEICIQDLEKILLYSDGLNEALLDEETIYGEILEEELLWNRFLSEMNRRFRSRVKDVDDDITAFWVRRVPQNPSASRSYEIKSSLLEVHRLSDTIEEGLESFGIFDLEASTRFMTALTEMLMNAYEHGSLGVERLTKDQLIQEGSYDEYLAKESKPHRRIRVRLRRYEEGEATLLTCEVEDEGRGFDTQTLLQNLRNEPETLTSGRGIRLTKGLVDHLCFKKGGRVSQFTVVAREALFGNEGHHHHHH | not soluble
MSLDTPTHLTLMVSGTAKMIYLPATLAQRLGYFRDEGLDVELLSQPAGVDAESELLTGYAQGVVGFYDHTIDLQTKGKEVRAIVVFSHVPGEAEVVSTRLPATVQSLHDLRGRTLGVTGLGSSTSFLTRHLMAQQGLGPGEYTMLPVGAEHSFVSALRSGRIDAGMTTDPTATRLIRNKEARMLLDLRTIESTRAALGGPYPAACLYVQTEWLEAHPELATKLARAFVRTLRYLRSHRAEDIAAHMPPEFRRDRPDVYMQALIAALPTFSDDGRMPADGPATVLRVLSTSNPNARDKHIDLSRTYTNRFVDQAKEGHHHHHH | soluble
MSLDVAALVSGGVDSSVVVHRLCEEGYKPAIFYIRIGMEDKDGYIDCPAEEDIELTTLIARRYGCPFEVVDLHKEYWERVVSYTVETVRRGLTPNPDMMCNKLIKFGCFEERWGYQFDRIATGHYATTDLLNGKTYLSTAKDPVKDQTDFLAQINFAQISKLMFPIGHLLKSEVRAIANAAGLPSAKRKDSQGICFLGKIDYNDFIERYLGKKEGRIIELETGKVIGRHQGYWFHTIGQRKGLGLSGGPWFVVKKDIKRNIILVSRGYDPDAQYGKTIEMETFDFITEDAYEAGYWNREDATPVTFKIRHTPEFTRGLLYKGEKGYRLESEERIQGIAPGQYCVIYDEDHHLCYGSGMITKGREGHHHHHH | soluble
MSLDVKNLAKWKKVPPVSDRIANTFVALKMLREVDEEHNPVLFSKAHRDNIYTVIDISHESPVYNPASLEAGGIHYQKYPTVSKIPPTPDEVRDFIALVDRLQKEITEKMEKSNTSGAARLRPVVGVHCHYGFNRTGFLIVSYLIERCGFGVQEAIDEFEKRRPPGIRHAHFIDTLFVRYCVGLKRAPTEGHHHHHH | not soluble
MSLDYHKQFIGELSQVSYHIIGYGSYYEEALIKYLGESIERYATVIAGDLLSDRIVYASYNELKLLHKVMPLEYLQVFTQEQIALSCDLQMMMCDKMVTENDVLGWVKCPMFFEDAEMYVPAQMLCVGYKTNETVGERRIIPGFSTGTASHKTLEAAMCNSLIEYIQIDSMMLSWYTKKPCPKIIVDDPDIEVILEEARLGKDSLYDIIPIDMTVGEDNPLYTFGIILKNKYDEGPYLLFGVQAGLDPKHALLRGIMEASAISYSYYYNLLYQKASLANIECEEPLFLDLDSNVFYYAHPKDQDHKWKAFEPLISGEVLLSDLEDHSGKDKKEDLKTLLAYAKKVSPNAVFLDITPPEALEKGWYVTRVLMPELLEMCIPAFPFANHPRMRQFGGVTNAFVHPMPEGHHHHHH | soluble
MSLEAKKSKAIVFSGVNQIELREVTLKPVSSTDVLVETWWSSISTGTEKMALNGLIPSPPFIFPFIPGYETVGRIVEAGDHVNQGLIGKFAYVAGSFGYEDVNAAFGGASQFIVCPVESLTVLDGIANPQCGIALPLGATALHIVDLAEVKNRKVLVLGQGAVGILAAELAKRFGASLVAVTEPHQRRLDISTSDIKVNPEKQDVSVALAGHEFDVLIDSTGIMSAIETGLRFLKFHGKVIFGGYYQRMNIDYSQAFNKELSFIAARQWAKGDLHRVRELIAAGKINAEKIFTHQCTVDDNLMEAYMQAFSDSDCLKMIIHWKHGNEAGEHFPTCNTANEGHHHHHH | soluble
MSLEAVKTIEKEKKDLEQKRIEEATEEEIKPGDHVKMEGGTSVGKVVEVKSGTALVDFGFLRLKVPVSKLRKTKKEEKKETSTFSYKPSSFRTEIDIRGMTVEEAEPVVKKFIDDLMMNGISKGYIIHGKGTGKLASGVWEILRKDKRVVSFRFGTPSEGGTGVTVVEVKEGHHHHHH | soluble
MSLEEDIQKQIIAAKEEAHDETIWGKPANDIITGIGNNSGVRPQRAIWEMVQNARDVSLNGKADIVFERQHDCFIFQHNGISFTNNTLEALILQTSSKVRNDSVQVGQYGTGFLTTHKLGLKFTLSSSVQLLENEQLFHHFSNFLIDRSSTDKKQMRDSLKKQIKITEEWARNPTIVSGPSSLTTFRYIQEHEVEKMNTKEAFKASSALAPYVIALNPCVNSISFVDNVEDCKELYIRKSTEIINTCDFYNVVKVTIDKCETESCDFTVLMLQSKETVEESGEPKVIVILPIKELESKSVAFALSKDVPNLFIYLPLLGTEQWGLNFIFHSPLFTCDKDSRDSLRFVGNGQNNDVDAERNKGIIQLADVIVSHYITENLSNIQDCMYLAKVAFNLHNSDEALANYYKSLQSSWVKKYESFPFVITKNGNIITRQAKVFDKELFDACLENKDLLTAVYNVTVQIYGTDYLPLETNMLFWSETLLQWYEAESFNPHLIHLSDIVEYIDKNNITTIGEENLWCIDNYIANSKQIGLFTKYKLLPTKNGELRVREDLLNPIIHDESLLKILDSLLPNDVASFIHTRFVLFEDVKIEEYDHNKVKESMRLLVSELSDLQKGHEIYRTNILAGLDVDSNKYEQNKLSDNHINALMGFYAYIVNIGGEAFQYKMIHLLADFYNIDLKSGEAYIKEIYDWRTVAPLLIKDALFRFTLMDSQKQAENAEWVRQMVIALYNYSDYRTYLDKYTVYPNEMDKYCYSKKISKSVNITNDLIALYDKIVNNENGENMCKSIKCVLLKNTYNDYFVENATIEGSSLAEKIMLEIKREGAYPDISANKWKQQILDIIAKQDKDVYWASIFGEIDSSKGAILLSVIQEKEKKDSILSLIRVSDTKKLKALAEVAEDDNLARIIELGKAALRDEMNSEADFEYKKKLGEYVEELIRKEIDSKLKAGSHIMEVLSQQDGQDIIILLDGTAIYYIEVKSRWSQKDSVLMSALQFRTSVEEKTHYALCEVDMITYNRENVDKHEFPDVEETINRISAIMNIGVLNETLKDTLNQDSDQVHVGGDYKVVVPQTVWEEHGKHFNELVEEIKKIVEEKEGHHHHHH | soluble
MSLEEFVKTGKTVCILINKQGRIYYSNIGKDVAEKCLEDIHIFDHLPADGTVSYNVGYYTVTADTVDLDEAHYYLILIQPQGNLYKYAYRDSFTGLYNRNYWEQLISGKMHRPIPKRFTLIVIDVDNLKSLNDNRGHLAGDKAIRIVGKSIRESIRKQDIAVRYGGDEFFILLANTKKAIVEKVINRVKENIRKRGKEENIHIEISVGMACSNSINKLEKVITMADYNMYKEKREKKVQVKHIGEGHHHHHH | not soluble
MSLEELVKKLGDKLNEAEADAKKFGKLIGRITRFESVSLKDNELIGVDIAFEDYLNSDVKKGQYLAIRSITRPVTILGQVRAITRADALSKLGIRELSYPKDPTTIITTTYVELKPIAEIENGKIRPPVSPVDPQSPVFIPNHDLIEKILNIPSRGITIGKIFSGGEETDASVRLDEYTLRHHTLILGTTGSGKTTLLKSMISSEEIDKGTFIFDRQGDFINYLIEKRRGFAVIMPVVEEASRSISLKDHAEKFANWYDCDNILDVKEDGVLEECNGSEVFLIPYSINFYSVLKNFNKITPYFTPKASMYWEAIVNNMFEIIGYDLYELADKKQTFYEDQLSDFLRDRLTPGSLLGKISGFYDLKMVSGSKSKQFSSYDGSKKMLTINMGKAFEEAMKRLDVPYQTKEAILRTLKAYDSYGIFTVPGTVDFKPKDVFSSYSDVVVDLSWVMNRSASIEAVATIAYKLLEDFFNWKDELYKMKETTKLTLVIMDEAHEYFPQTDQENVSKDIVEGLINRIMRLGRVRNIGVVLATHVPEDLNPLVLQLTNTKVVMRNESHVLRRLGLEEYEDFLRHATPGLAIVYSIYFSEVPIKTIQREGHHHHHH | soluble
MSLEENDFDAIYIGNSKSMIKDYRGFVFTMRELREKFPNAVLITDLEPFFYPLAVYLGIDAFDIRSLKIYSYEGLGFTQFSPIIWDEPKEDPVEYAKKIIRLIRIAIHEGKLRYLVENFLPTSMNAGILRIADRENIEYLEKYTPVDDKTVVFISDYSMTRPEVYRWAKRVRERFEPPKDIELLLILPCSAKKPYSRSRSHTLYRSAVKEALGEKMHRVHELIVTSPYGVVPREWEWIAKYDIVVTGHWSEREVRLAGELLADVLEKYPDIPIIAHVEGGYREAVKLAMELSGRDVIFTAKGNSTTSRESLANLTKTLKEFDVRDVDKEYRRYRFYENIRKIFDFYFGLNAGYAVLPERAQVVGSKMLRLIVDNQQTGTFQEGVISVTPWGMQRIYDELHSYWVEIDFDVRGDIFAAGVGSADEKIRPNDWVGVVRDGKVVAVGRAVLSGEEMVKAKRGVAVKVKKKAKEGHHHHHH | not soluble
MSLEKLMALYNISSPSGKEGKIAGFIIGELRRMGIPFRQDRYGNIYAVKGNRESYPCVVAHMDEVHRRKTGSYAAHLVADSMIVGYDHKRKRMTGIGADDKNGIWICLKCLEDFKAVKCAFFVQEEIGCIGSGHADMSFFSDCRFVIQCDRKGNGDMVTQINGMRLCSNEFISAVDPRKYGYKPAQGLATDVAALKRNGLEVSCVNLSCGYYEPHTDNEYTVLADLCKCYRFVRHIICCHKEGHHHHHH | soluble
